Test results: the supplement of paper PMC9112550, “Optimization of the antimicrobial peptide Bac7 by deep mutational scanning” (BMC Biology, 2022)

The sequences below were run on Escherichia coli TOP10 (assay: shrunken log2 fold change of peptide-encoding DNA abundance (4.5 h post-induction vs induction); higher = less antimicrobial activity (less host growth inhibition)). Conditions: time post-induction: 4.5 h; library: site-saturation at positions 5, 18, 19, 20.
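Further: peptides expressed intracellularly from a pBAD plasmid library in pooled LB shake-flask culture, induced with 0.3% L-arabinose, DNA abundance read by NGS, three biological replicates, DESeq2 with apeglm shrinkage.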

Sequence	shrunken log2 fold change
RRIRDRPPRLPRPRPRPRAWPRP	0.0227
RRIRCRPPRLPRPRPRPIRVPRP	0.161
RRIRLRPPRLPRPRPRPGGKPRP	-0.00333
RRIRTRPPRLPRPRPRPCFSPRP	-0.3
RRIRHRPPRLPRPRPRPVKMPRP	-0.0874
RRIRTRPPRLPRPRPRPCFYPRP	-0.351
RRIRGRPPRLPRPRPRPKSQPRP	0.556
RRIRLRPPRLPRPRPRPCLIPRP	-0.0321
RRIRSRPPRLPRPRPRPIATPRP	0.344
RRIRQRPPRLPRPRPRPKPDPRP	0.313
RRIRQRPPRLPRPRPRPFLGPRP	-0.38
RRIRARPPRLPRPRPRPGFYPRP	0.0241
RRIRARPPRLPRPRPRPRYDPRP	0.166
RRIRDRPPRLPRPRPRPPRTPRP	0.389
RRIRCRPPRLPRPRPRPQTPPRP	0.48
RRIRPRPPRLPRPRPRPDRWPRP	0.219
RRIRRRPPRLPRPRPRPITVPRP	-0.179
RRIRWRPPRLPRPRPRPFNGPRP	-0.0132
RRIRSRPPRLPRPRPRPFNQPRP	-0.295
RRIRIRPPRLPRPRPRPQNYPRP	-0.428
RRIRWRPPRLPRPRPRPYAVPRP	0.0097
RRIRHRPPRLPRPRPRPKQRPRP	0.41

Sequence	shrunken log2 fold change
RRIRHRPPRLPRPRPRPICYPRP	-0.178
RRIRYRPPRLPRPRPRPLTKPRP	-0.281
RRIRSRPPRLPRPRPRPMQMPRP	0.512
RRIRCRPPRLPRPRPRPREAPRP	0.521
RRIRKRPPRLPRPRPRPLDWPRP	0.474
RRIRRRPPRLPRPRPRPHLDPRP	0.176
RRIRARPPRLPRPRPRPGSNPRP	0.127
RRIRLRPPRLPRPRPRPSQEPRP	-0.0518
RRIRKRPPRLPRPRPRPVMMPRP	0.155
RRIRVRPPRLPRPRPRPPVFPRP	0.00719
RRIRLRPPRLPRPRPRPIPEPRP	0.0268
RRIRQRPPRLPRPRPRPDESPRP	0.0454
RRIRQRPPRLPRPRPRPEDMPRP	0.0353
RRIRARPPRLPRPRPRPLPIPRP	0.205
RRIRCRPPRLPRPRPRPVTCPRP	-0.121
RRIRYRPPRLPRPRPRPQWNPRP	-0.108
RRIRFRPPRLPRPRPRPIYCPRP	-0.0425
RRIRCRPPRLPRPRPRPYMDPRP	0.0215
RRIRWRPPRLPRPRPRPRARPRP	0.773
RRIRLRPPRLPRPRPRPKCIPRP	-0.9
RRIRNRPPRLPRPRPRPEHPPRP	0.115
RRIRDRPPRLPRPRPRPSCIPRP	0.0916

Sequence	shrunken log2 fold change
RRIRCRPPRLPRPRPRPKDDPRP	0.146
RRIRVRPPRLPRPRPRPICAPRP	-0.167
RRIRFRPPRLPRPRPRPDCDPRP	-0.147
RRIRWRPPRLPRPRPRPGNCPRP	-0.0763
RRIRERPPRLPRPRPRPRNEPRP	-0.473
RRIRPRPPRLPRPRPRPGIWPRP	0.157
RRIRSRPPRLPRPRPRPLGDPRP	0.0783
RRIRPRPPRLPRPRPRPWFIPRP	-0.298
RRIRDRPPRLPRPRPRPNKKPRP	-0.117
RRIRDRPPRLPRPRPRPYPPPRP	-0.426
RRIRPRPPRLPRPRPRPTYRPRP	-0.236
RRIRFRPPRLPRPRPRPCEKPRP	0.00738
RRIRCRPPRLPRPRPRPVTSPRP	-0.0245
RRIRERPPRLPRPRPRPARFPRP	0.168
RRIRHRPPRLPRPRPRPMSYPRP	-0.0194
RRIRKRPPRLPRPRPRPGVCPRP	0.87
RRIRDRPPRLPRPRPRPTQRPRP	0.746
RRIRPRPPRLPRPRPRPRSMPRP	0.0858
RRIRMRPPRLPRPRPRPNCTPRP	-0.15
RRIRIRPPRLPRPRPRPYPHPRP	-1.02
RRIRGRPPRLPRPRPRPCTRPRP	0.0901
RRIRLRPPRLPRPRPRPRAYPRP	0.0155

Sequence	shrunken log2 fold change
RRIRYRPPRLPRPRPRPCFWPRP	-0.136
RRIRGRPPRLPRPRPRPKKNPRP	0.778
RRIRRRPPRLPRPRPRPTNHPRP	-0.0627
RRIRFRPPRLPRPRPRPNADPRP	-0.055
RRIRSRPPRLPRPRPRPMSDPRP	-0.195
RRIRTRPPRLPRPRPRPMPMPRP	0.467
RRIRDRPPRLPRPRPRPNRLPRP	0.0873
RRIRDRPPRLPRPRPRPNTHPRP	-0.292
RRIRWRPPRLPRPRPRPACCPRP	0.454
RRIRRRPPRLPRPRPRPADEPRP	2.06
RRIRVRPPRLPRPRPRPEMIPRP	-0.0397
RRIRARPPRLPRPRPRPTMVPRP	-0.0882
RRIRTRPPRLPRPRPRPAKPPRP	0.583
RRIRMRPPRLPRPRPRPAGYPRP	0.572
RRIRGRPPRLPRPRPRPDRCPRP	0.286
RRIRKRPPRLPRPRPRPSVRPRP	0.528
RRIRARPPRLPRPRPRPGMFPRP	0.295
RRIRDRPPRLPRPRPRPHLYPRP	0.0039
RRIRWRPPRLPRPRPRPGVVPRP	0.576
RRIRYRPPRLPRPRPRPPNTPRP	-0.686
RRIRIRPPRLPRPRPRPQADPRP	-0.0941
RRIRIRPPRLPRPRPRPSPSPRP	0.0467

Sequence	shrunken log2 fold change
RRIRHRPPRLPRPRPRPPRIPRP	0.0175
RRIRRRPPRLPRPRPRPCKIPRP	0.0604
RRIRIRPPRLPRPRPRPTMHPRP	-0.443
RRIRRRPPRLPRPRPRPNAKPRP	0.0165
RRIRPRPPRLPRPRPRPQGAPRP	0.0965
RRIRERPPRLPRPRPRPPWPPRP	0.408
RRIRDRPPRLPRPRPRPDYYPRP	0.00235
RRIRVRPPRLPRPRPRPQMPPRP	0.204
RRIRMRPPRLPRPRPRPIGYPRP	-0.0789
RRIRYRPPRLPRPRPRPGNWPRP	-0.163
RRIRRRPPRLPRPRPRPQTQPRP	0.506
RRIRPRPPRLPRPRPRPKPNPRP	0.356
RRIRLRPPRLPRPRPRPDRKPRP	-0.0365
RRIRKRPPRLPRPRPRPCYQPRP	-0.42
RRIRERPPRLPRPRPRPCSMPRP	-0.0884
RRIRYRPPRLPRPRPRPSPGPRP	-0.726
RRIRRRPPRLPRPRPRPVMMPRP	-0.0277
RRIRKRPPRLPRPRPRPVIHPRP	-0.0677
RRIRARPPRLPRPRPRPYVRPRP	-0.377
RRIRERPPRLPRPRPRPDNAPRP	-0.245
RRIRQRPPRLPRPRPRPYKHPRP	-0.161
